Source: the supplement of paper PMC9112550, “Optimization of the antimicrobial peptide Bac7 by deep mutational scanning” (BMC Biology, 2022)

test system: Escherichia coli TOP10; experiment: shrunken log2 fold change of peptide-encoding DNA abundance (4.5 h post-induction vs induction); higher = less antimicrobial activity (less host growth inhibition); details: time post-induction: 4.5 h; library: site-saturation at positions 5, 18, 19, 20
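Note: peptides expressed intracellularly from a pBAD plasmid library in pooled LB shake-flask culture, induced with 0.3% L-arabinose, DNA abundance read by NGS, three biological replicates, DESeq2 with apeglm shrinkage.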

Row | Sequence | shrunken log2 fold change
1 | RRIRLRPPRLPRPRPRPLDVPRP | -0.205
2 | RRIRLRPPRLPRPRPRPLEGPRP | 0.765
3 | RRIRLRPPRLPRPRPRPLEVPRP | -0.0281
4 | RRIRLRPPRLPRPRPRPLFEPRP | 1.33
5 | RRIRLRPPRLPRPRPRPLFGPRP | -0.0652
6 | RRIRLRPPRLPRPRPRPLGEPRP | 0.013
7 | RRIRLRPPRLPRPRPRPLGSPRP | -0.00618
8 | RRIRLRPPRLPRPRPRPLHKPRP | 0.223
9 | RRIRLRPPRLPRPRPRPLHNPRP | -0.0106
10 | RRIRLRPPRLPRPRPRPLHPPRP | -0.0561
11 | RRIRLRPPRLPRPRPRPLIPPRP | -0.41
12 | RRIRLRPPRLPRPRPRPLKAPRP | -0.153
13 | RRIRLRPPRLPRPRPRPLLCPRP | -0.0707
14 | RRIRLRPPRLPRPRPRPLLDPRP | 0.3
15 | RRIRLRPPRLPRPRPRPLLFPRP | -0.242
16 | RRIRLRPPRLPRPRPRPLMKPRP | 0.0215
17 | RRIRLRPPRLPRPRPRPLMRPRP | 0.807
18 | RRIRLRPPRLPRPRPRPLNDPRP | -0.0903
19 | RRIRLRPPRLPRPRPRPLNSPRP | -0.389
20 | RRIRLRPPRLPRPRPRPLNTPRP | -0.454
21 | RRIRLRPPRLPRPRPRPLPIPRP | -0.129
22 | RRIRLRPPRLPRPRPRPLPSPRP | 3.98
23 | RRIRLRPPRLPRPRPRPLQIPRP | -0.092
24 | RRIRLRPPRLPRPRPRPLQQPRP | 0.0442
25 | RRIRLRPPRLPRPRPRPLQRPRP | 0.0926

Row | Sequence | shrunken log2 fold change
26 | RRIRLRPPRLPRPRPRPLRPPRP | 0.525
27 | RRIRLRPPRLPRPRPRPLRSPRP | 0.474
28 | RRIRLRPPRLPRPRPRPLSYPRP | 0.128
29 | RRIRLRPPRLPRPRPRPLTHPRP | -0.0644
30 | RRIRLRPPRLPRPRPRPLVFPRP | -0.186
31 | RRIRLRPPRLPRPRPRPLVYPRP | -0.335
32 | RRIRLRPPRLPRPRPRPLWFPRP | -0.543
33 | RRIRLRPPRLPRPRPRPLWIPRP | -0.399
34 | RRIRLRPPRLPRPRPRPLYCPRP | -0.366
35 | RRIRLRPPRLPRPRPRPLYKPRP | -0.328
36 | RRIRLRPPRLPRPRPRPLYPPRP | -0.12
37 | RRIRLRPPRLPRPRPRPMAKPRP | 0.109
38 | RRIRLRPPRLPRPRPRPMALPRP | -0.0125
39 | RRIRLRPPRLPRPRPRPMDWPRP | -0.0759
40 | RRIRLRPPRLPRPRPRPMEKPRP | 0.0493
41 | RRIRLRPPRLPRPRPRPMFWPRP | 0.145
42 | RRIRLRPPRLPRPRPRPMIEPRP | -0.00289
43 | RRIRLRPPRLPRPRPRPMIHPRP | -0.186
44 | RRIRLRPPRLPRPRPRPMIYPRP | -0.0701
45 | RRIRLRPPRLPRPRPRPMLAPRP | 0.369
46 | RRIRLRPPRLPRPRPRPMLHPRP | -0.34
47 | RRIRLRPPRLPRPRPRPMLIPRP | -0.0317
48 | RRIRLRPPRLPRPRPRPMLPPRP | -0.164
49 | RRIRLRPPRLPRPRPRPMMFPRP | -0.269
50 | RRIRLRPPRLPRPRPRPMPEPRP | 0.221

Row | Sequence | shrunken log2 fold change
51 | RRIRLRPPRLPRPRPRPMQSPRP | 0.0626
52 | RRIRLRPPRLPRPRPRPMRCPRP | 0.0565
53 | RRIRLRPPRLPRPRPRPMRRPRP | 0.412
54 | RRIRLRPPRLPRPRPRPMRVPRP | 0.115
55 | RRIRLRPPRLPRPRPRPMSDPRP | 0.0343
56 | RRIRLRPPRLPRPRPRPMSLPRP | -0.0224
57 | RRIRLRPPRLPRPRPRPMTCPRP | -0.252
58 | RRIRLRPPRLPRPRPRPMVDPRP | -0.00377
59 | RRIRLRPPRLPRPRPRPMVHPRP | 0.012
60 | RRIRLRPPRLPRPRPRPMWAPRP | 0.0661
61 | RRIRLRPPRLPRPRPRPMWRPRP | 0.194
62 | RRIRLRPPRLPRPRPRPMWVPRP | -0.314
63 | RRIRLRPPRLPRPRPRPMYIPRP | -0.172
64 | RRIRLRPPRLPRPRPRPMYRPRP | 0.0136
65 | RRIRLRPPRLPRPRPRPNEIPRP | 0.0349
66 | RRIRLRPPRLPRPRPRPNGIPRP | -0.00731
67 | RRIRLRPPRLPRPRPRPNGVPRP | 0.0191
68 | RRIRLRPPRLPRPRPRPNHHPRP | -0.0905
69 | RRIRLRPPRLPRPRPRPNHKPRP | -0.335
70 | RRIRLRPPRLPRPRPRPNIRPRP | -0.585
71 | RRIRLRPPRLPRPRPRPNIVPRP | -0.00437
72 | RRIRLRPPRLPRPRPRPNKEPRP | 0.0626
73 | RRIRLRPPRLPRPRPRPNKMPRP | -0.158
74 | RRIRLRPPRLPRPRPRPNKTPRP | 0.0829
75 | RRIRLRPPRLPRPRPRPNKVPRP | -0.21

Row | Sequence | shrunken log2 fold change
76 | RRIRLRPPRLPRPRPRPNLRPRP | -0.0377
77 | RRIRLRPPRLPRPRPRPNMRPRP | 0.0295
78 | RRIRLRPPRLPRPRPRPNQMPRP | -0.437
79 | RRIRLRPPRLPRPRPRPNQSPRP | -0.0737
80 | RRIRLRPPRLPRPRPRPNRIPRP | -0.0157
81 | RRIRLRPPRLPRPRPRPNSEPRP | -0.0888
82 | RRIRLRPPRLPRPRPRPNTLPRP | -0.136
83 | RRIRLRPPRLPRPRPRPNVCPRP | -0.0138
84 | RRIRLRPPRLPRPRPRPNWIPRP | -0.583
85 | RRIRLRPPRLPRPRPRPPDCPRP | 0.0366
86 | RRIRLRPPRLPRPRPRPPEMPRP | 1.71
87 | RRIRLRPPRLPRPRPRPPFCPRP | 0.701
88 | RRIRLRPPRLPRPRPRPPFPPRP | 0.455
89 | RRIRLRPPRLPRPRPRPPFTPRP | 0.11
90 | RRIRLRPPRLPRPRPRPPGAPRP | 0.54
91 | RRIRLRPPRLPRPRPRPPGKPRP | -0.0183
92 | RRIRLRPPRLPRPRPRPPGLPRP | 0.149
93 | RRIRLRPPRLPRPRPRPPKAPRP | 0.025
94 | RRIRLRPPRLPRPRPRPPKHPRP | 0.117
95 | RRIRLRPPRLPRPRPRPPKRPRP | 0.492
96 | RRIRLRPPRLPRPRPRPPLAPRP | 0.519
97 | RRIRLRPPRLPRPRPRPPMHPRP | 0.363
98 | RRIRLRPPRLPRPRPRPPMIPRP | -0.0218
99 | RRIRLRPPRLPRPRPRPPNNPRP | -0.106
100 | RRIRLRPPRLPRPRPRPPPHPRP | 1.13

Row | Sequence | shrunken log2 fold change
101 | RRIRLRPPRLPRPRPRPPQFPRP | -0.165
102 | RRIRLRPPRLPRPRPRPPQMPRP | 0.304
103 | RRIRLRPPRLPRPRPRPPRHPRP | 0.377
104 | RRIRLRPPRLPRPRPRPPRSPRP | 0.422
105 | RRIRLRPPRLPRPRPRPPRYPRP | 0.178
106 | RRIRLRPPRLPRPRPRPPSNPRP | 0.00215
107 | RRIRLRPPRLPRPRPRPPSQPRP | 0.756
108 | RRIRLRPPRLPRPRPRPPTMPRP | 0.266
109 | RRIRLRPPRLPRPRPRPPVDPRP | 0.539
110 | RRIRLRPPRLPRPRPRPPWIPRP | -0.35
111 | RRIRLRPPRLPRPRPRPPYCPRP | -0.0882
112 | RRIRLRPPRLPRPRPRPPYTPRP | -0.674
113 | RRIRLRPPRLPRPRPRPQAAPRP | 0.0357
114 | RRIRLRPPRLPRPRPRPQCGPRP | 0.0192
115 | RRIRLRPPRLPRPRPRPQDDPRP | -0.224
116 | RRIRLRPPRLPRPRPRPQDVPRP | -0.0265
117 | RRIRLRPPRLPRPRPRPQEQPRP | -0.00233
118 | RRIRLRPPRLPRPRPRPQEWPRP | 0.0562
119 | RRIRLRPPRLPRPRPRPQFHPRP | -0.414
120 | RRIRLRPPRLPRPRPRPQFKPRP | -0.501
121 | RRIRLRPPRLPRPRPRPQFNPRP | -0.57
122 | RRIRLRPPRLPRPRPRPQFRPRP | -0.244
123 | RRIRLRPPRLPRPRPRPQGFPRP | -0.0528
124 | RRIRLRPPRLPRPRPRPQGKPRP | 0.0467
125 | RRIRLRPPRLPRPRPRPQGQPRP | -0.0201

Row | Sequence | shrunken log2 fold change
126 | RRIRLRPPRLPRPRPRPQHLPRP | -0.223
127 | RRIRLRPPRLPRPRPRPQHMPRP | -0.767
128 | RRIRLRPPRLPRPRPRPQIPPRP | -0.273
129 | RRIRLRPPRLPRPRPRPQKWPRP | 2.37
130 | RRIRLRPPRLPRPRPRPQMHPRP | -0.295
131 | RRIRLRPPRLPRPRPRPQMPPRP | -0.417
132 | RRIRLRPPRLPRPRPRPQMRPRP | 0.64
133 | RRIRLRPPRLPRPRPRPQNNPRP | -0.585
134 | RRIRLRPPRLPRPRPRPQPMPRP | 0.216
135 | RRIRLRPPRLPRPRPRPQQVPRP | 0.107
136 | RRIRLRPPRLPRPRPRPQSKPRP | -0.224
137 | RRIRLRPPRLPRPRPRPQSLPRP | -0.0995
138 | RRIRLRPPRLPRPRPRPQSNPRP | -0.0786
139 | RRIRLRPPRLPRPRPRPQTDPRP | -0.139
140 | RRIRLRPPRLPRPRPRPQVGPRP | -0.203
141 | RRIRLRPPRLPRPRPRPQYHPRP | -0.895
142 | RRIRLRPPRLPRPRPRPQYNPRP | -0.791
143 | RRIRLRPPRLPRPRPRPRAEPRP | 0.0944
144 | RRIRLRPPRLPRPRPRPRCGPRP | 0.0294
145 | RRIRLRPPRLPRPRPRPRCWPRP | 0.371
146 | RRIRLRPPRLPRPRPRPREQPRP | 0.134
147 | RRIRLRPPRLPRPRPRPRGAPRP | 0.425
148 | RRIRLRPPRLPRPRPRPRHPPRP | 0.163
149 | RRIRLRPPRLPRPRPRPRIHPRP | -0.081
150 | RRIRLRPPRLPRPRPRPRIKPRP | -0.168
